Reference: US20160215055A1 (PROMIS NEUROSCIENCES, published 2016)
Ends that are not written are not given here.

Molecular target: T1, FasR epitope peptide LHHDGQFCH (human FasR residues 52-60) (human, also: coupled to BSA, linkage not given here)
T1 construct: Coated as BSA-peptide at 100 ng/well; The immunogens were KLH-Cys-X and OVA-Cys-X; also called BSA-specific peptide
T1 peptide: LHHDGQFCH
Experiment: ELISA, BSA-peptide coated on plates

B1: AMF-3a-118 (antibody, V domains shown)
VH: QSVEESGGRLVTPGTPLTLTCKASGFSLSDSRVSWVRQAPGKGLEWIGIVGIGWNIYHANWAKGRFTISKTSSTTVDLKITSPTVEDTATYFCARGLGGGTVIWGPGTLVTVSL
VL: AQVLTQTPASVSAAVGGTVTISCQSSESVYKNNYLSWFQQKPGQPPKLLIYEASKLASGVSTRFKGSGSGTQFTLTISGVQCDDAATYYCLGEFSCYSGDCGTFGGGTAVVVKG
notes: Recombinant rabbit monoclonal IgG (RabMAb) expressed in HEK-293-6E cells
binding result: binds
